According to patent US20180339041A1 (Kyowa Kirin, published 2018):

T1: C-terminally FLAG-tagged mouse Gas6 recombinant protein (mGas6-F) (mouse, UniProt Q61592 28-674, limits assumed, gamma-carboxylated glutamic acid residues in the Gla domain (producer cells co-express rat VKOR and human GGCX); positions not given)
T1 construct: also called mouse Gas6-F
T1 sequence (looked up): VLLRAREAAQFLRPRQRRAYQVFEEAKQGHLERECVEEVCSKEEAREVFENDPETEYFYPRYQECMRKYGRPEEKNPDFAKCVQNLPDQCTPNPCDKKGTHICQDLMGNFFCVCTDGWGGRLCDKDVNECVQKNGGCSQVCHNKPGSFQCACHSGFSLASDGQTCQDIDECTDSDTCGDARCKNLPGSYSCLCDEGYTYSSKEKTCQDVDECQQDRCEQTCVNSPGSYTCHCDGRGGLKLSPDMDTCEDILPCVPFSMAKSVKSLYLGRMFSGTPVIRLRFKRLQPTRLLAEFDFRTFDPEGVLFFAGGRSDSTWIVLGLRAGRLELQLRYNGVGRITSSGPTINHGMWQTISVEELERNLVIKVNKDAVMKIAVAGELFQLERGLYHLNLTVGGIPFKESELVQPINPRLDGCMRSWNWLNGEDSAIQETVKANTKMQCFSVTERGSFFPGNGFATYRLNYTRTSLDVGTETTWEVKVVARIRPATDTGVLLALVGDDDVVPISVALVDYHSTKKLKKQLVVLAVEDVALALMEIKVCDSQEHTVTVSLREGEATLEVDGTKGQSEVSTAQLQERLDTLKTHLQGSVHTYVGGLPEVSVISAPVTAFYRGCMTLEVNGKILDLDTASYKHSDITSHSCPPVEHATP

B1: anti-human Gas6 mouse monoclonal antibody KM5321 (KM5321-mKG1 antibody) (antibody, V domains shown)
VH: QIQLVQSGPELKKPGETVKISCRASGYTFTNYGMNWVKQAPGKGLKWMGWINTNTGEPTYTEEFKGRFAFSLETSATTAYLQINDLKNEDTATYFCARDEGWFVYWGQGTLITVSA
VL: ETTVTQSPASLSVATGEKVTIRCITSTDIDDDMNWYQQKPGEPPKLLISEGNTLRPGVPSRFSSSGYGTDFVFTIENTLSEDVADYYCLQTDSVPLTFGAGTKLELK
notes: Hybridoma-derived mouse IgG1, kappa; also called KM5321 antibody
B2: anti-human Gas6 mouse monoclonal antibody KM5320 (KM5320-mKG1 antibody) (antibody, V domains shown)
VH: QIQLVQSGPELKKPGETVKISCKASGYTFTNYGMNWVKQAPGKGLKWMGWINTETGEPTYSDDFKGRFAFSLETSATTAYLQINNLRNEDMATYFCAREDGYYGTLDYWGQGTSVTVSS
VL: SIVMTQTPKFLLVSAGDRVTITCKASQSVSNDVAWYQQKPGQSPKVLIYYASNRYTGVPDRFTGSGYGTDFTFTISTVQAEDLAVYFCQQDYSSPWTFGGGTKLEIK
notes: Hybridoma-derived mouse IgG1, kappa; also called KM5320 antibody

Target: T1, C-terminally FLAG-tagged mouse Gas6 …
Assay: competition ELISA: mAxl-mFc coated; mGas6-F at 50 ng/mL final premixed with the antibody; bound Gas6-F detected with anti-FLAG M2-HRP; blocked partner mAxl-mFc (Examples 5(4) and 7) [C]

| Binder | IC50 (read off the curve) [µg/mL] |
| --- | --- |
| B1 | ~0.03 |
| B2 | ~0.09 |
